We go through 1 molecule from patent US8597922B2, “Methods and compositions for producing olefins” (LS9, Inc., priority 2007, dated 2013).

The test system of one assay is E. coli MG1655 ΔfadD. Nature of the assay: α-Olefins from glucose by expression of orf880 in E. coli MG1655 ΔfadD. The settings on record: glucose (1%, w/v) only carbon source, versus vector-only control. Type of assay: cell-based. Here is the method: The genomic DNA encoding ATCC 8456_orf880, which was codon-optimized for expression in E. coli (SEQ ID NO:4), was cloned into vector OP80 (pCL1920 derivative) under the control of the Ptrc promoter, and E. coli MG1655 ΔfadD was transformed with the resulting vector. The E. coli cells were grown at 37° C. in M9 mineral medium supplemented with 20 μg/mL uracil and 100 μg/mL spectinomycin. Glucose (1%, w/v) was the only source of carbon and energy. When the culture reached an OD600 of 0.8 to 1.0, IPTG (1 mM) and 0.5 mM delta-aminolaevulinic acid (heme biosynthesis precursor) were added. The temperature was shifted to 25° C. After growth for an additional 18 to 24 h at 25° C., the cells from 10 mL of culture were pelleted, resuspended in 1 mL methanol, sonicated for 30 min, and extracted with 4 mL hexane. After solvent evaporation, the samples were resuspended in 0.1 mL hexane and analyzed by GC-MS.

Another assay deals with B. subtilis IHA01. The assay is described as follows: α-Olefin production in Bacillus subtilis by heterologous expression. The settings on record: 0.05% stearic acid, versus vector only control. Type of assay: cell-based. Here is the method: Genomic DNA encoding Jeotgalicoccus ATCC 8456_orf880 was cloned into the BamHI and XbaI sites of vector pHT01 under the control of the Pgrac promoter. B. subtilis IHA01 (lacA::spec leuB8 metB5 r(−)m(+) Sp, obtained from Bacillus Genetic Stock Center, Columbus, Ohio, strain number BGSC 1A785) was transformed with the resulting vector. The B. subtilis cells were grown at 37° C. in minimal medium supplemented with 2% glucose, 0.3 mM leucine, 0.3 mM methionine, and 10 mg/L chloramphenicol. When the cultures reached an OD600 of 0.8 to 1.0, 1 mM IPTG was added (to induce expression of orf880) along with 0.5 mM 5-amino laevulinic acid (as a precursor for heme biosynthesis) and 0.05% stearic acid (as a substrate for ORF880). The temperature was shifted to 25° C. and after growth for additional 18-24 h at 25° C., cells from a 1 mL culture were pelleted, resuspended in 100 μL methanol, sonicated for 1 h, and extracted with 300 μL ethyl acetate. 300 μL of water was added before separating the organic layer by centrifugation at 15,000 rpm for 5 min. The solvent layer was analyzed by GC-MS.
Genomic DNA encoding Corynebacterium efficiens YS-134 orfCE2459 was cloned into the BamHI and XbaI sites of vector pHT01 under the control of the Pgrac promoter and transformed into B. subtilis IHA01 cells. The resulting cells were grown, extracted, and analyzed as described in Example 9.

B1: ORF880: olefin-producing enzyme (fatty acid decarboxylase) from Jeotgalicoccus sp. ATCC 8456, SEQ ID NO:2 (protein)
chain: MATLKRDKGLDNTLKVLKQGYLYTTNQRNRLNTSVFQTKALGGKPFVVVTGKEGAEMFYNNDVVQREGMLPKRIVNTLFGKGAIHTVDGKKHVDRKALFMSLMTEGNLNYVRELTRTLWHANTQRMESMDEVNIYRESIVLLTKVGTRWAGVQAPPEDIERIATDMDIMIDSFRALGGAFKGYKASKEARRRVEDWLEEQIIETRKGNIHPPEGTALYEFAHWEDYLGNPMDSRTCAIDLMNTFRPLIAINRFVSFGLHAMNENPITREKIKSEPDYAYKFAQEVRRYYPFVPFLPGKAKVDIDFQGVTIPAGVGLALDVYGTTHDESLWDDPNEFRPERFETWDGSPFDLIPQGGGDYWTNHRCAGEWITVIIMEETMKYFAEKITYDVPEQDLEVDLNSIPGYVKSGFVIKNVREVVDRT
modifications: Jeotgalicoccus sp. ATCC8456
With B1, the α-olefins produced in the assay with E. coli MG1655 ΔfadD was 1-pentadecene and heptadecadiene. Further, the “α-olefin produced from stearic acid” value in the assay on B. subtilis IHA01 is on record as 1-heptadecene.
